The values that follow come from patent US20170349905A1.

Assay [1] deals with second domain of Cas9 protein (half domain comprising the C-terminus, beginning with the QG amino acids of the SGQG linker; NLS and HA tag at its C-terminus) (UniProt Q99ZW2). Kind of assay: cell-based or functional assay.
Assay [2] has as its target second domain of Cas9 protein delivered by adeno-associated virus vector (splicing acceptor linked t (UniProt Q99ZW2)). Description: cell-based or functional assay.

second domain of Cas9 protein (half domain comprising the C-terminus, beginning with the QG amino acids of the SGQG linker; NLS and HA tag at its C-terminus), sequence (Q99ZW2 716-1368): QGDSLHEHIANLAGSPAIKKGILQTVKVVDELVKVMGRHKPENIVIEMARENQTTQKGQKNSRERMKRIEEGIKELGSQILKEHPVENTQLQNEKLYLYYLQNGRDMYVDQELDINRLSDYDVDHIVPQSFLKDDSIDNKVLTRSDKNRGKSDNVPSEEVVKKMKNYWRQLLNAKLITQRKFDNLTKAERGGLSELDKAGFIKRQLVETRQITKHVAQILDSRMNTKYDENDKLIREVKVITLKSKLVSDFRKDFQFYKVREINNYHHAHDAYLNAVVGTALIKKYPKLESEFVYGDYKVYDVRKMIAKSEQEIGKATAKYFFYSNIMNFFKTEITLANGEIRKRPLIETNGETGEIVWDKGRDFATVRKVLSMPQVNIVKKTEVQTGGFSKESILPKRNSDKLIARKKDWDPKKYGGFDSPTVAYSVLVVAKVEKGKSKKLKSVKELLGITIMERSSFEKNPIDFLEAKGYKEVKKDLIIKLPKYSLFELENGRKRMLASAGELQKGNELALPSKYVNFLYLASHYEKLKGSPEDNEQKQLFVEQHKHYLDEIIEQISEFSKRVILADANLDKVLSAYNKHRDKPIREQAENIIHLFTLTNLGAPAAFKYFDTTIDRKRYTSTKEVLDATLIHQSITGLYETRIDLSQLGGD
second domain of Cas9 protein delivered by adeno-associated virus vector (splicing acceptor linked t, sequence (Q99ZW2 716-1368 limits assumed): as the sequence (Q99ZW2 716-1368) above

In assay [1], “first domain of Cas9 protein (half domain comprising the N-terminus, ending in the SG amino acids of the SGQG linker; HA tag and NLS at its N-terminus) (from UniProt Q99ZW2 1-715) (enzyme)” came in with an Indel frequency in the CCR5 gene (next-generation sequencing) of 20.3%, an Indel frequency in the DMD gene (next-generation sequencing) of 23.8% and an Indel frequency in the HPRT gene (next-generation sequencing) of 27.1%.
With “first domain of Cas9 protein delivered by adeno-associated virus vector (splicing donor linked to the C-terminal region) (from UniProt Q99ZW2 1-715) (enzyme)”, the target sequence cleavage rate (DMD exon 51) in Hela cells co-infected with AAV, next-generation sequencing in assay [2] came to 5%.
